Values joined by “and” are separate entries in the source; they are usually repeats but may differ in a detail not shown here. Equal entries are not always repeated.

From US20240417433A1 (NANTONG YICHEN BIOPHARMA, published 2024) come the findings set out here.

For test [1], the target named is integrin β7 on human β7-high T cells (human, UniProt P26010 20-798; P13612 34-1032). The test is described as follows: cell-based or functional assay.
A further test addresses T1, Recombinant protein α4β7 (UniProt P13612 34-977; P26010 20-723).
T1 construct: Coated on the ELISA plate at 100 ng per well; also called integrin β7
The test is described as follows: ELISA on coated recombinant α4β7 (100 ng per well). In general terms: An ELISA detects its analyte on a solid surface through an enzyme-linked reagent.

Test [2] concerns the target Kv1.3 potassium ion channel (UniProt P22001 1-575). Put plainly: cell-based or functional assay.

Chain of Kv1.3 potassium ion channel (P22001 whole entry): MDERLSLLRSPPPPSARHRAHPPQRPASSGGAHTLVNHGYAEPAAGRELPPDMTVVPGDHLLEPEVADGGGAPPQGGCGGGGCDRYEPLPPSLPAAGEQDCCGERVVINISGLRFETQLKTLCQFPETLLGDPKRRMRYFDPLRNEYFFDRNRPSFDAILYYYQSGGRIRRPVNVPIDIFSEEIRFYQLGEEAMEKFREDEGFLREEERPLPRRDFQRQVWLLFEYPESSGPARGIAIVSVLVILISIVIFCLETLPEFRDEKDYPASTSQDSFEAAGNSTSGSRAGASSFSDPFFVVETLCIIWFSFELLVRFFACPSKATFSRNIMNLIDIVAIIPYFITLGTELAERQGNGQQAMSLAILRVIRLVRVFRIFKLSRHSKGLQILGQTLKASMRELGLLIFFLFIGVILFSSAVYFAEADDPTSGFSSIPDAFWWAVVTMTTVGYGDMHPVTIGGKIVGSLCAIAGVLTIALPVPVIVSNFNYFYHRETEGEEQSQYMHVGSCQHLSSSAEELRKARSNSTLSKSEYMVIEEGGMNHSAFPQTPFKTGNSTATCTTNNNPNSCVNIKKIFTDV
T1 sequence (P13612 34-977, chain 1 of 2): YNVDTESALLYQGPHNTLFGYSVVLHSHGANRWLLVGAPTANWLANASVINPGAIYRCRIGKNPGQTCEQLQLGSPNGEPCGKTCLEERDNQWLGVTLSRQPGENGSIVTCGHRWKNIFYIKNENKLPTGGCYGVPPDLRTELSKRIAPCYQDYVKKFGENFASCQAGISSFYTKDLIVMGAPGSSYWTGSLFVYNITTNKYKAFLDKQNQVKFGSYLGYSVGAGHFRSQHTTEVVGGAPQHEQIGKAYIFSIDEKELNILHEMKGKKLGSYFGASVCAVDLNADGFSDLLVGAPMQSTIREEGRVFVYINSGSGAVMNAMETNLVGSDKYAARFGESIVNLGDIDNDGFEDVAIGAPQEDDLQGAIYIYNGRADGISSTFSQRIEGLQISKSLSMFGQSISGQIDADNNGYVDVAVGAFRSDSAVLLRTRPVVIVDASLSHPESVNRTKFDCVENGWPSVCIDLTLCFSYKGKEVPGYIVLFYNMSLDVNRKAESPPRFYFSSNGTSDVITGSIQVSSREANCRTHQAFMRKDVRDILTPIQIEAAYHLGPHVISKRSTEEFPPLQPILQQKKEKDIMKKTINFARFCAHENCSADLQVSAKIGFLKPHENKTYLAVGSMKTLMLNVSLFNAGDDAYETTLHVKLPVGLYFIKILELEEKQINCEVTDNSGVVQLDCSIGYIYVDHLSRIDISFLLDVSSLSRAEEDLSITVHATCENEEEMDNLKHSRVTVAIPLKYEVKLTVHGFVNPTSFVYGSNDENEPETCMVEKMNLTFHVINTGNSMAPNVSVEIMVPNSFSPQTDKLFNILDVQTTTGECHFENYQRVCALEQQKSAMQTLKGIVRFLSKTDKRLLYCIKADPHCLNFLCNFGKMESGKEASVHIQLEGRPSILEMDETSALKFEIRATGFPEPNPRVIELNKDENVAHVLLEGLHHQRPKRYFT
T1 sequence (P26010 20-723, chain 2 of 2): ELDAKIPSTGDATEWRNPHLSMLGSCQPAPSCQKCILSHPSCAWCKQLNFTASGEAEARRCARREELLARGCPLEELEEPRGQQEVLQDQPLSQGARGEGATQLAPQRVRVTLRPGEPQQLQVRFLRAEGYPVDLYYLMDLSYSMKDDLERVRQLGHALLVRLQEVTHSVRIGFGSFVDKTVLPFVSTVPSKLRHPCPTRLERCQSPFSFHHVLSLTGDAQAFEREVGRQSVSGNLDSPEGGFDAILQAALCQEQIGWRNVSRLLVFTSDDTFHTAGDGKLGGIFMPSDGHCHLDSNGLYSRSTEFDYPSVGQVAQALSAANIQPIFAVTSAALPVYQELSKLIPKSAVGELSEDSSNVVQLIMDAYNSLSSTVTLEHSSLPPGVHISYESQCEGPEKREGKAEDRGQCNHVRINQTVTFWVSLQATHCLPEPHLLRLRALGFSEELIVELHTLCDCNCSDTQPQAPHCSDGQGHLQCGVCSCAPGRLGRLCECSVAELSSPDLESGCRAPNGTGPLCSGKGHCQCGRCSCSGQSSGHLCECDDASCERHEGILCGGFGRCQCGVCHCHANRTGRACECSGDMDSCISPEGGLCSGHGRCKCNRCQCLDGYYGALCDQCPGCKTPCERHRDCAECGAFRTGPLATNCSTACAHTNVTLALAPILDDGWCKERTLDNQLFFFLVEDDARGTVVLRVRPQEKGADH

B1: Etrolizumab (antibody, V domains shown)
VH: EVQLVESGGGLVQPGGSLRLSCAASGFFITNNYWGWVRQAPGKGLEWVGYISYSGSTSYNPSLKSRFTISRDTSKNTFYLQMNSLRAEDTAVYYCARTGSSGYFDFWGQGTLVTVSS
VL: DIQMTQSPSSLSASVGDRVTITCRASESVDDLLHWYQQKPGKAPKLLIKYASQSISGVPSRFSGSGSGTDFTLTISSLQPEDFATYYCQQGNSLPNTFGQGTKVEIKR
Turning to B1, in test [1], the “IC50, cell adhesion assay (CellTiter-Glo)” value (from here on “IC50, cell adhesion assay”) is 0.06 µg/ml and 0.42 nM.

B2: ATF-L2 (bispecific antibody)
heavy: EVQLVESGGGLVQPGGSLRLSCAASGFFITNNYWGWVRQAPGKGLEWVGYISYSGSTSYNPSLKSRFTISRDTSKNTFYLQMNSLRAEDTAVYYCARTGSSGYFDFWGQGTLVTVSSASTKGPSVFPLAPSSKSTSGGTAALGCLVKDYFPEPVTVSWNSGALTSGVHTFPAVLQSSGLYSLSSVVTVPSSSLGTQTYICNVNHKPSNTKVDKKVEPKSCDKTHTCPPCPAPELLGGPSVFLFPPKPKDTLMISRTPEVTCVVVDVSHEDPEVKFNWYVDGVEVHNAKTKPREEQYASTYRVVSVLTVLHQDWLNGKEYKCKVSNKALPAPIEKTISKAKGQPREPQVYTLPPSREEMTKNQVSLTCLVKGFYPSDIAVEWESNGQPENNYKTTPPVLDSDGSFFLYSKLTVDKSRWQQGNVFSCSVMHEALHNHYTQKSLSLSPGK
light: DIQMTQSPSSLSASVGDRVTITCRASESVDDLLHWYQQKPGKAPKLLIKYASQSISGGSGAKLAALKAKLAALKGGGGSAAAISCVGSPECPPKCRAQGCKNGKCMNRKCKCYYCGGGGSELAALEAELAALEAGGSGSRFSGSGSGTDFTLTISSLQPEDFATYYCQQGNSLPNTFGQGTKVEIKRTVAAPSVFIFPPSDEQLKSGTASVVCLLNNFYPREAKVQWKVDNALQSGNSQESVTEQDSKDSTYSLSSTLTLSKADYEKHKVYACEVTHQGLSSPVTKSFNRGEC
notes: The summary says the graft lies between 56S and 60S of light chain FR3; also called ATF-L2 (with LCDR2-grafted Vm24)
For orientation: Kd means a measure of binding affinity in units of concentration. On to B2, for which, in the test with Recombinant protein α4β7, the dissociation constant Kd was 0.0359 nM.

B3: ATF-H2 (bispecific antibody)
heavy: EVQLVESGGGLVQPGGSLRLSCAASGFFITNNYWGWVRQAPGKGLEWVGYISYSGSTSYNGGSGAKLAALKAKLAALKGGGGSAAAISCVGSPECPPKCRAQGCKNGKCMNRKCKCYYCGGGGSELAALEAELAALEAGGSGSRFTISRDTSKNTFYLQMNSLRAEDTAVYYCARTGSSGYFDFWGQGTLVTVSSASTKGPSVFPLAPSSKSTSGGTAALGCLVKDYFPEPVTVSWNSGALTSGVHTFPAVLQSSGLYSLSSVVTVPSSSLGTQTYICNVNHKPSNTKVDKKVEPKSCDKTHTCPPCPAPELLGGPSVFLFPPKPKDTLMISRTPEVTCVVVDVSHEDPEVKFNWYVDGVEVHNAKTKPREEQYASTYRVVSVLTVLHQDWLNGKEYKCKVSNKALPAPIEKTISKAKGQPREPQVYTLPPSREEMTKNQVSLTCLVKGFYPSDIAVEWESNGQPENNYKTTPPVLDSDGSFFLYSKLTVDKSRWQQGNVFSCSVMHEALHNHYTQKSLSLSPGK
light: DIQMTQSPSSLSASVGDRVTITCRASESVDDLLHWYQQKPGKAPKLLIKYASQSISGVPSRFSGSGSGTDFTLTISSLQPEDFATYYCQQGNSLPNTFGQGTKVEIKRTVAAPSVFIFPPSDEQLKSGTASVVCLLNNFYPREAKVQWKVDNALQSGNSQESVTEQDSKDSTYSLSSTLTLSKADYEKHKVYACEVTHQGLSSPVTKSFNRGEC
notes: The summary says the graft lies between 60N and 65S of heavy chain FR3; also called ATF-H2 (with HCDR2-grafted Vm24)
On to B3, for which the “IC50, cell adhesion assay” value in test [1] was 0.072 µg/ml and 0.45 nM. The “IC50, Flipr potassium current fluorescence detection” value in test [2] was 0.53 nM. Further, the Kd with Recombinant protein α4β7 is 0.0192 nM.

B4: ATF-H1 (bispecific antibody)
heavy: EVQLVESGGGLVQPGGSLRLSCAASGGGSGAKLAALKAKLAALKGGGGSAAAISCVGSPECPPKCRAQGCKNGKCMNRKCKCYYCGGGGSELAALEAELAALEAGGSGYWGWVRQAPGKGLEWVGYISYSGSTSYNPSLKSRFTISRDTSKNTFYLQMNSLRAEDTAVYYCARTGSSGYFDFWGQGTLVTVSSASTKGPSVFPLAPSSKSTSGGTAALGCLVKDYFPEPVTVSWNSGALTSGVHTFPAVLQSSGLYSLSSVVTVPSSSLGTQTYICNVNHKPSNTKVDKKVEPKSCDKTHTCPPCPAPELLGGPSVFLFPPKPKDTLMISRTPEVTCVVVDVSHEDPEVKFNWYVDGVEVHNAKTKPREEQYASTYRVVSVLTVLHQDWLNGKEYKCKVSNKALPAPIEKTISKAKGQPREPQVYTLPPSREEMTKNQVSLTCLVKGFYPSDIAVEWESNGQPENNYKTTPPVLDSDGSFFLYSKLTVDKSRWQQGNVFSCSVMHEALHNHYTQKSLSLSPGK
light: B3 light
notes: Vm24 with linkers grafted into HCDR1 of etrolizumab; also called ATF-H1 (with HCDR1-grafted Vm24)
On to B4, for which the “IC50, Flipr potassium current fluorescence detection” value in test [2] came to 0.72 nM. Also, the binding result with Recombinant protein α4β7 is “no binding”.

B5: ATF-H3 (bispecific antibody)
heavy: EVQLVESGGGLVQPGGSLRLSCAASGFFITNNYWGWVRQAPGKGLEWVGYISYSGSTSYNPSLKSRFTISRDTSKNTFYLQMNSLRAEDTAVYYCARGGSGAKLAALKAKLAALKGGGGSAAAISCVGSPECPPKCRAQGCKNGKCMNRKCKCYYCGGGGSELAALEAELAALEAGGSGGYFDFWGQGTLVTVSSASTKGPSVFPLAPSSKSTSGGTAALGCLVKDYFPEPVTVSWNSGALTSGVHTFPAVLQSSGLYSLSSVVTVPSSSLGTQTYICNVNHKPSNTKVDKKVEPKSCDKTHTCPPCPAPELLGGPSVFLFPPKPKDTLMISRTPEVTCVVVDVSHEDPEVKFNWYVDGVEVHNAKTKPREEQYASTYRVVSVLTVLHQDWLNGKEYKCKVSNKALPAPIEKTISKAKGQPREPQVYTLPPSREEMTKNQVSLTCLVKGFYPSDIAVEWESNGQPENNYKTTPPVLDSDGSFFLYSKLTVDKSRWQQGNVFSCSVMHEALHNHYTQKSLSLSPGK
light: B3 light
notes: Vm24 with linkers grafted into HCDR3 of etrolizumab; also called ATF-H3 (with HCDR3-grafted Vm24)
Take B5: the equilibrium dissociation constant (Kd) with Recombinant protein α4β7 came to 13.9 nM.

B6: ATF-L3 (bispecific antibody)
heavy: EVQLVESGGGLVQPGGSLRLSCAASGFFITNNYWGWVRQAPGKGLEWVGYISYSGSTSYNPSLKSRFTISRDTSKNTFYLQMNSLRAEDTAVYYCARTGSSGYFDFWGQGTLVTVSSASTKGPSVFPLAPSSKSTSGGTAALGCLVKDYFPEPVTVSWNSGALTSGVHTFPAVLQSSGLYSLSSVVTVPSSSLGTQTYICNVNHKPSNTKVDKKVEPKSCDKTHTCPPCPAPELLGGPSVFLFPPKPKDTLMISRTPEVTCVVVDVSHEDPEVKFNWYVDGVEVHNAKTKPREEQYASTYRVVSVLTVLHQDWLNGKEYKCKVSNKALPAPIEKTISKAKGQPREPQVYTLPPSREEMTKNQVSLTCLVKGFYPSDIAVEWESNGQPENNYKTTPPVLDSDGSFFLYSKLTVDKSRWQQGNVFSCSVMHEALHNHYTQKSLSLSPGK
light: DIQMTQSPSSLSASVGDRVTITCRASESVDDLLHWYQQKPGKAPKLLIKYASQSISGVPSRFSGSGSGTDFTLTISSLQPEDFATYYCQQGGGSGAKLAALKAKLAALKGGGGSAAAISCVGSPECPPKCRAQGCKNGKCMNRKCKCYYCGGGGSELAALEAELAALEAGGSGNTFGQGTKVEIKRTVAAPSVFIFPPSDEQLKSGTASVVCLLNNFYPREAKVQWKVDNALQSGNSQESVTEQDSKDSTYSLSSTLTLSKADYEKHKVYACEVTHQGLSSPVTKSFNRGEC
notes: Vm24 with linkers grafted into LCDR3 of etrolizumab; also called ATF-L3 (with LCDR3-grafted Vm24)
Consider B6, for which the dissociation constant (Kd) with Recombinant protein α4β7 was determined as 0.0408 nM.

B7: ATF-L1 (bispecific antibody)
heavy: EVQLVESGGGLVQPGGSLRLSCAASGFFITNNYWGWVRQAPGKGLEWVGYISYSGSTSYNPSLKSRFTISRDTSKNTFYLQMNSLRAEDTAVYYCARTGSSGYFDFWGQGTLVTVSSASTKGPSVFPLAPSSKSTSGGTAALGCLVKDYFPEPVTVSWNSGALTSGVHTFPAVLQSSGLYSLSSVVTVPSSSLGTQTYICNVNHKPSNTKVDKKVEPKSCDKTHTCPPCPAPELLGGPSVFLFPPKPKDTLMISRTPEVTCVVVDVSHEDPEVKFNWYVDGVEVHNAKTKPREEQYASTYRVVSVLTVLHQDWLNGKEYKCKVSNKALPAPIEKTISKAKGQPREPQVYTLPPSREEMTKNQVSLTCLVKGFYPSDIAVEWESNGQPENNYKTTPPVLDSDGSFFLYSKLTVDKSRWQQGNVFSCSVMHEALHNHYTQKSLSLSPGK
light: DIQMTQSPSSLSASVGDRVTITCRASESGGSGAKLAALKAKLAALKGGGGSAAAISCVGSPECPPKCRAQGCKNGKCMNRKCKCYYCGGGGSELAALEAELAALEAGGSGLLHWYQQKPGKAPKLLIKYASQSISGVPSRFSGSGSGTDFTLTISSLQPEDFATYYCQQGNSLPNTFGQGTKVEIKRTVAAPSVFIFPPSDEQLKSGTASVVCLLNNFYPREAKVQWKVDNALQSGNSQESVTEQDSKDSTYSLSSTLTLSKADYEKHKVYACEVTHQGLSSPVTKSFNRGEC
B7: in test [1], the “IC50, cell adhesion assay” value was 0.173 µg/ml and 1.09 nM. In test [2], the “IC50, Flipr potassium current fluorescence detection” value came out at 0.7 nM.
